Assay results from patent US20260297195 (published 2026).

B1: PDL1-1v6 (antibody, V domains shown)
VH: EVQLLESGGGLVQPGGSLRLSCAASGFTVSNSAVSWARQAPGKGLEWVSLIDSNRNTVYAQSVRGRFTISRDNSKNTVYLQMNSLKAEDTAVYYCAKGIWGSTLWGQGTTVTVSS
B2: PDL1-1v5 (antibody, V domains shown)
VH: EVQLLESGGGLVQPGGSLRLSCAASGFTVSNSAVSWARQAPGKGLEWVSLIDSNRNTVYAQSVRGRFTISRDNVKNTVYLQMNSLRAEDTAVYYCAKGWGSTLWGQGTTVTVSS
B3: NbPDL1-14-Fc (antibody, V domains shown)
VH: QVQLQESGGGLVQPGGSLRLSCAASGIISDINMVAWYRQAPGKQRELVAKIFRGGSTYYTDFVKGRFTISRENAKNTVYLQMNSLKPDDTAVYYCNARIQIRADRDYSDYWGQGTQVTVSS
B4: PDL1-14 (antibody, V domains shown)
VH: QVQLQESGGGLVQPGGSLRLSCAASGIISDINMVAWYRQAPGKQRELVAKIFRGGSTYYTDFVKGRFTISRENAKNTVYLQMNSLKPDDTAVYYCNARIQIRADRDYSDYWGQGTQVTVSS

Legend:
human PDL1-Fc [1] = molecular target: human PDL1-Fc (human); test: BLI
human PDL1-Fc [2] = molecular target: human PDL1-Fc (human); test: ELISA
human PDL1-His = human PDL1-His (human); test: SPR 25C
Chain of human PDL1-His (human) (chain, as listed by the source): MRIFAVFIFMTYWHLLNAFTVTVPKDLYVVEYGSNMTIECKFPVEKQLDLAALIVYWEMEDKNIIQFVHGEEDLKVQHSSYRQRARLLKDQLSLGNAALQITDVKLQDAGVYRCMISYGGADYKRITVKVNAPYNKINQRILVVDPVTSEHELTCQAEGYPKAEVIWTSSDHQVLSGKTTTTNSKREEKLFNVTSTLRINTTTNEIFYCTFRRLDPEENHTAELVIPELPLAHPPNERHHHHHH

Chain of human PDL1-Fc (human) (chain, as listed by the source): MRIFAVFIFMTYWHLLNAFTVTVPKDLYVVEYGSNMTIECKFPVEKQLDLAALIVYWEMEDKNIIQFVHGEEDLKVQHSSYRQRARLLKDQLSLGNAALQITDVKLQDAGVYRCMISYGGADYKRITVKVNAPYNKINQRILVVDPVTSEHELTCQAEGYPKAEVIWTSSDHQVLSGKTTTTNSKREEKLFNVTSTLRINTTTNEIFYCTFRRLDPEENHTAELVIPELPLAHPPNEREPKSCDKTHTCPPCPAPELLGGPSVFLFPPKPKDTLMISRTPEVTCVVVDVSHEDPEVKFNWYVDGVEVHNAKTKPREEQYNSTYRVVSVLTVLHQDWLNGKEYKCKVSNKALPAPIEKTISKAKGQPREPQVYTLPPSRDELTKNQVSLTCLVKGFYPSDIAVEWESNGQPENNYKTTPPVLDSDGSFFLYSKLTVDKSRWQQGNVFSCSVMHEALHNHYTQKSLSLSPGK

| Binder | Kd (human PDL1-Fc [1]) [µM] | EC50 (human PDL1-Fc [2]) [mg/L] | binding result (human PDL1-His) |
| --- | --- | --- | --- |
| B1 | 0.022 |  |  |
| B2 | 0.0122 | 0.0478 |  |
| B3 |  |  | no binding |
| B4 |  |  | no binding |
